# Results: IntAct's records for PubMed 22035699
# B1: 5-hydroxytryptamine receptor 1A (Homo sapiens), P08908 (parent)
# chain: MDVLSPGQGNNTTSPPAPFETGGNTTGISDVTVSYQVITSLLLGTLIFCAVLGNACVVAAIALERSLQNVANYLIGSLAVTDLMVSVLVLPMAALYQVLNKWTLGQVTCDLFIALDVLCCTSSILHLCAIALDRYWAITDPIDYVNKRTPRRAAALISLTWLIGFLISIPPMLGWRTPEDRSDPDACTISKDHGYTIYSTFGAFYIPLLLMLVLYGRIFRAARFRIRKTVKKVEKTGADTRHGASPAPQPKKSVNGESGSRNWRLGVESKAGGALCANGAVRQGDDGAALEVIEVHRVGNSKEHLPLPSEAGPTPCAPASFERKNERNAEAKRKMALARERKTVKTLGIIMGTFILCWLPFFIVALVLPFCESSCHMPTLLGAIINWLGYSNSLLNPVIYAYFNKDFQNAFKKIIKCKFCRQ
# Variants of: B1
# Settings: with fgfr1_human FGFR1, P11362
# Chain of fgfr1_human FGFR1, P11362 (P11362 whole entry, looked up): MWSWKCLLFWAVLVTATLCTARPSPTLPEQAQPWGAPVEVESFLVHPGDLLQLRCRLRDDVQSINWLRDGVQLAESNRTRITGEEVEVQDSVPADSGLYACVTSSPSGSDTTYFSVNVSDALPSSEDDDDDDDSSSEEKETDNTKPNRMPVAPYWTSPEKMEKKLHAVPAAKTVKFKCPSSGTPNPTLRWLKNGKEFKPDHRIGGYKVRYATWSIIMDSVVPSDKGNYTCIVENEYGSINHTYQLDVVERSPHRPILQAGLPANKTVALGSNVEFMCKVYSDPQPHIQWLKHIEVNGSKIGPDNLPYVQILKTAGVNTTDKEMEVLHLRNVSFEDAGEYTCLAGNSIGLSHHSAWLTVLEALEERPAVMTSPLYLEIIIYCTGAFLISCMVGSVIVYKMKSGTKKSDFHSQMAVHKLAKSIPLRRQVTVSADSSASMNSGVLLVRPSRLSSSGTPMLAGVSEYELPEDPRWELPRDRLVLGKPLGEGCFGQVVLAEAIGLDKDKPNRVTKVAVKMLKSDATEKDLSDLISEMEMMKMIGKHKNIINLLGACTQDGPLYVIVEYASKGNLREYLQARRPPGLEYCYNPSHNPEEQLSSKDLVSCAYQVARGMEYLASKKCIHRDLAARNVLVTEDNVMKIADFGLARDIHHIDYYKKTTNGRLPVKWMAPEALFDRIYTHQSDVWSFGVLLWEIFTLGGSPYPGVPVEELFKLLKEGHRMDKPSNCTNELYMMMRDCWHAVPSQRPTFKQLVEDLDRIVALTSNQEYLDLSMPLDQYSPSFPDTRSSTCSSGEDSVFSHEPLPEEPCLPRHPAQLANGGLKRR
row,effect of a mutation on the interaction,Variant
1,decreasing interaction,MDVLSPGQGNNTTSPPAPFETGGNTTGISDVTVSYQVITSLLLGTLIFCAVLGNACVVAAIALERSLQNVANYLIGSLAVTDLMVSVLVLPMAALYQVLNKWTLGQVTCDLFIALDVLCCTSSILHLCAIALDRYWAITDPIDYVNKRTPRRAAALISLTWLIGFLISIPPMLGWRTPEDRSDPDACTISKDHGYTIYSTFGAFYIPLLLMLVLYGRIFRAARFRIRKTVKKVEKTGADTRHGASPAPQPKKSVNGESGSRNWRLGVESKAGGALCANGAVRQGDDGAALEVIEVHRVGNSKEHLPLPSEAGPTPCAPASFERKNERNAEAKRKMALARERKTVKTLGIIMGTFILCWLPFFIVALVLPFCESSCHMPTLLGAIINWLGYSNSLLNPVIYAYFNKAAAAAAAAAAACKFCRQ [D406A;F407A;Q408A;N409A;F411A;K412A;K413A;I414A;I415A;K416A]
